What all share (conditions): protein: recombinant; intramolecular parallel G4, K+
The target of series [1] is T1, HMGB1 A box (termed HMGB1) (UniProt P09429 9-78).
T1 sequence: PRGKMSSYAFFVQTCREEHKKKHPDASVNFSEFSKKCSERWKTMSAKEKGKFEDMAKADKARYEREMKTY
In words: fluorescence titration (intrinsic HMGB1 fluorescence, 335 nm); K+; K+-containing buffer; 20 or 200 mM K+ in Fig S9 titrations (10 uM HMGB1); full buffer, pH and temperature of binding assays not in material (phase-separation assays: 10 mM HEPES pH 7.4, 20 mM K+, 10% PEG8K).

Series [2] addresses T1, HMGB1 A box (termed HMGB1). In words: fluorescence titration; 20 mM K+; K+-containing buffer; 20 or 200 mM K+ in Fig S9 titrations (10 uM HMGB1); full buffer, pH and temperature of binding assays not in material (phase-separation assays: 10 mM HEPES pH 7.4, 20 mM K+, 10% PEG8K).
Series [3] addresses T1, HMGB1 A box (termed HMGB1). In words: fluorescence titration; 200 mM K+; K+-containing buffer; 20 or 200 mM K+ in Fig S9 titrations (10 uM HMGB1); full buffer, pH and temperature of binding assays not in material (phase-separation assays: 10 mM HEPES pH 7.4, 20 mM K+, 10% PEG8K).
In series [4] the target is T1, HMGB1 A box (termed HMGB1). In words: ITC; K+; K+-containing buffer; 20 or 200 mM K+ in Fig S9 titrations (10 uM HMGB1); full buffer, pH and temperature of binding assays not in material (phase-separation assays: 10 mM HEPES pH 7.4, 20 mM K+, 10% PEG8K). On the technique in general: ITC needs no label: the signal is the heat of the interaction.

B1: 22R (GQKRAS) (structured_DNA)
DNA: AGGGCGGTGTGGGAAGAGGGAA
Turning to B1, the Kd in series [1] was 4.08 µM; in series [2], 3.24 µM; in series [3], 4.24 µM; in series [4], 7.04 µM.

For orientation: Kd means the free concentration of one partner at which half of the binding sites on the other are occupied at equilibrium, for simple one-to-one binding.

The values are drawn from paper PMC10783520, “Mutual promotion of co-condensation of KRAS G-quadruplex and a well-folded protein HMGB1”.
